Laboratory results from US7056679 (ANTYRA, dated 2006).
No end group written: not given here.

Columns and labels:
[1] = target: T1, antibody raised against ETAG; assay: phage ELISA
T1 construct: Coated at 500 ng/well; also called E-tag antibody
Method: (§1) For analysis of individual target binders, colonies were picked and phage prepared as described above using helper phage, M13KO7. Ninety-six-well microtiter plates were coated with 500 ng/well of specific target protein, 500 ng/well lactate dehydrogenase (LDH) irrelevant or non-specific target, 500 ng/well of positive control antibody raised against ETAG, and negative control of non-fat milk powder-PBS 2% at 4° C. overnight. Plates were then blocked with 350 microliters/well PBS containing 2% non-fat milk for 1 hr at room temperature. One hundred microliters per well of phage from isolated clones were added and plates were incubated at room temperature for 2 hr after centrifuging samples for 20 minutes at 3500 rpm at 4° C. The phage solution was then removed, and the wells were washed three times with PBS at room temperature. Antibody raised against M13 conjugated to horseradish peroxidase (Pharmacia) was diluted 1:3000 in PBS-Tween and added to each well (100 µl/well). Incubation was for 1 hr at room temperature, followed by washing with PBS-(0.5%) Tween 3 times as described. Color was developed by addition of ABTS solution (100 µl/well; Boehringer, Indianapolis, Ind.). Plates were analyzed at 405 nm. A clone was considered "positive" if the $A405$ of the well was $\geq$2-fold over background.

[2] = target: T2, DGI-2 polypeptide (UniProt Q15004 1-111, limits assumed); assay: phage ELISA
T2 construct: Soluble recombinant protein coated at 500 ng/well; vector tag of pIVEX2.3-MCS not described for this construct; also called KIAA0101
T2 sequence (looked up): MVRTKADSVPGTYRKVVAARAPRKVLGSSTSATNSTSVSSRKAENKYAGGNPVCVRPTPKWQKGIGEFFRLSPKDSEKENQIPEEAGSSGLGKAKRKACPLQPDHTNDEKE
Method: as §1

[3] = target: T3, lactate dehydrogenase (LDH); assay: phage ELISA
T3 construct: Coated at 500 ng/well as non-specific target; also called LDH polypeptide
Method: as §1

[4] = target: T4, DGI-2 (UniProt Q15004 1-111, limits assumed); assay: phage ELISA, coated DGI-2
T4 construct: Soluble recombinant DGI-2 made by in vitro translation (RTS, pIVEX2.3-MCS vector) and coated on plates for the ELISA; vector tag not described; also called KIAA0101; DGI-2 polypeptide
T4 sequence (looked up): T2 sequence (looked up)
Method: as §1

## GITGLFCLCLRSSQSIAAAGAPVPYPDPLEPRP [DGI-2-20F-P0P-D6]
[1]
  ETAG (OD): 5.7 OD
[2]
  DGI-2 (OD): 3.3 OD
  DGI-2/LDH: 3.2 ratio
[3]
  LDH (OD): 1 OD

## SWACGLLWPGECGSQVARRG (not fully specified; cysteine pairing not given here, on M13 phage, pIII fusion with E-tag) [DGI-2-20R-3-D127]
[4]
  binding result: binds

## EVFVSVWVFRFRVMPVTPGGTAAAGAPVPYPDPLEPRP [DGI-2-20F-PP-E6]
[1]
  ETAG (OD): 4.1 OD
[2]
  DGI-2 (OD): 3 OD
  DGI-2/LDH: 2.6 ratio
[3]
  LDH (OD): 1.2 OD

## QVGGMTQVGATVLSVVTGRGSCDGEDAWYPPGVTVGLGLC (on M13 phage, pIII fusion with E-tag) [DGI-2-40F-4-F97]
[4]
  binding result: binds

## YAMSSRECGIRNSGLILSMWAAAGAPVPYPDPLEPRP [DGI-2-20F-PP-C9]
[1]
  ETAG (OD): 31.6 OD
[2]
  DGI-2 (OD): 3.5 OD
  DGI-2/LDH: 3.9 ratio
[3]
  LDH (OD): 0.9 OD

## ERVSKCVGRGSGRSVGQFGG (on M13 phage, pIII fusion with E-tag)
[4]
  binding result: binds

## LGRTFVWGTCLHLSVSRFGHAAAGAPVPYPDPLEPRP [DGI-2-20F-PP-C3]
[1]
  ETAG (OD): 39.9 OD
[2]
  DGI-2 (OD): 5.3 OD
  DGI-2/LDH: 5.1 ratio
[3]
  LDH (OD): 1 OD

## WVVALRRIRLGLRRGVECLLAAAGAPVPYPDPLEPRP [DGI-2-20F-PP-D5]
[1]
  ETAG (OD): 33.6 OD
[2]
  DGI-2 (OD): 2.7 OD
  DGI-2/LDH: 2.3 ratio
[3]
  LDH (OD): 1.2 OD

## VVHTRAWGSWAYGFVLRNRGAAAGAPVPYPDPLEPRP [DGI-2-20F-PP-F10]
[1]
  ETAG (OD): 42.5 OD
[2]
  DGI-2 (OD): 3.5 OD
  DGI-2/LDH: 2.8 ratio
[3]
  LDH (OD): 1.3 OD

## VGHLLSRCAHHSPGMGASPYGAAAGAPVPYPDPLEPRP [DGI-2-20F-PP-B11]
[1]
  ETAG (OD): 40.8 OD
[2]
  DGI-2 (OD): 2.6 OD
  DGI-2/LDH: 2.7 ratio
[3]
  LDH (OD): 1 OD

## WGCVFRQWASGSGAGCARRH (not fully specified; cysteine pairing not given here, on M13 phage, pIII fusion with E-tag) [DGI-2-20R-3-D9]
[4]
  binding result: binds

## RSYPRLCKQKGGVIGRMLPGAAAGAPVPYPDPLEPRP [DGI-2-20F-PP-B2]
[1]
  ETAG (OD): 35.9 OD
[2]
  DGI-2 (OD): 3.3 OD
  DGI-2/LDH: 2.9 ratio
[3]
  LDH (OD): 1.1 OD

## VLGADAGMIWFMDGCGIRCR (not fully specified; cysteine pairing not given here, on M13 phage, pIII fusion with E-tag) [DGI-2-20R-4-E6]
[4]
  binding result: binds

## RERWGTAWNLWTEGVVDVRP (on M13 phage, pIII fusion with E-tag) [DGI-2-20F-3-B5]
[4]
  binding result: binds

## RRILPWSFPGCGRMC (not fully specified; cysteine pairing not given here, on M13 phage, pIII fusion with E-tag) [DGJ-2-20R-3-A10]
[4]
  binding result: binds

## TFTRDVAGPAVSFVRLHSWNAAAGAPVPYPDPLEPRP [DGI-2-20F-PP-A9]
[1]
  ETAG (OD): 40.8 OD
[2]
  DGI-2 (OD): 2.7 OD
  DGI-2/LDH: 2.3 ratio
[3]
  LDH (OD): 1.2 OD

## ERVSKCVGRGSGRSVGQFGGAAAGAPVPYPDPLEPRP
[1]
  ETAG (OD): 11.1 OD
[2]
  DGI-2 (OD): 3 OD
  DGI-2/LDH: 3.4 ratio
[3]
  LDH (OD): 0.9 OD

## RGSLLLTLPRLSGAVGTAYGAAAGAPVPYPDPLEPRP [DGI-2-20F-PP-B3]
[1]
  ETAG (OD): 11.7 OD
[2]
  DGI-2 (OD): 3.4 OD
  DGI-2/LDH: 3 ratio
[3]
  LDH (OD): 1.1 OD

## WWERFVWGRPVDDGVVVMAT (on M13 phage, pIII fusion with E-tag) [DGI-2-20R-3-B1]
[4]
  binding result: binds

## GSTRLRVTVRFCSETGTPGCAAAGAPVPYPDPLEPRP [DGI-2-20F-PP-G6]
[1]
  ETAG (OD): 36.1 OD
[2]
  DGI-2 (OD): 2.7 OD
  DGI-2/LDH: 2.5 ratio
[3]
  LDH (OD): 1.1 OD

## GGDLGEQGVQLCPDVVRGGSLAAAGAPVPYPDPLEPRP [DGI-2-20F-PP-A7]
[1]
  ETAG (OD): 42.2 OD
[2]
  DGI-2 (OD): 2.6 OD
  DGI-2/LDH: 2.8 ratio
[3]
  LDH (OD): 0.9 OD

## SIILAGCVWVMPCGQNLGGVAAAGAPVPYPDPLEPRP [DGI-2-20F-PP-C4]
[1]
  ETAG (OD): 36.1 OD
[2]
  DGI-2 (OD): 3 OD
  DGI-2/LDH: 3.2 ratio
[3]
  LDH (OD): 0.9 OD

## DRSRAPLCADKSGRWQRYRRAAAGAPVPYPDPLEPRP [DGI-2-20F-PP-C10]
[1]
  ETAG (OD): 8.6 OD
[2]
  DGI-2 (OD): 2.7 OD
  DGI-2/LDH: 3.1 ratio
[3]
  LDH (OD): 0.9 OD

## WAASCFWGHVALGCGRNGQG (not fully specified (bridges); cysteine pairing not given here, on M13 phage, pIII fusion with E-tag) [DGI-2-20R-3-A11]
[4]
  binding result: binds

## RVSYEMLGRRRRSMHGSSMRAAAGAPVPYPDPLEPRP [DGI-2-20F-PP-A4]
[1]
  ETAG (OD): 6.6 OD
[2]
  DGI-2 (OD): 2.7 OD
  DGI-2/LDH: 2.6 ratio
[3]
  LDH (OD): 1.1 OD

## RDTTSQWSWISRGWEFPGWR (on M13 phage, pIII fusion with E-tag) [DGI-2-20R-3-C2]
[4]
  binding result: binds

## GRAGTSMTELVAWGFVQRVGAAAGAPVPYPDPLEPRP [DGI-2-20F-PP-H10]
[1]
  ETAG (OD): 13 OD
[3]
  LDH (OD): 0.7 OD

## SLECWAMPGMVVRLVGCDGP (not fully specified (bridges); cysteine pairing not given here, on M13 phage, pIII fusion with E-tag) [DGI-2-20R-4-H112]
[4]
  binding result: binds

## VCGQRVARMQLNKTIRKLDSAAAGAPVPYPDPLEPRP [DGI-2-20F-PP-A6]
[1]
  ETAG (OD): 35.1 OD
[2]
  DGI-2 (OD): 3.1 OD
  DGI-2/LDH: 2.8 ratio
[3]
  LDH (OD): 1.1 OD

## VCSGGKGTWLEIPDRVRSSTAAAGAPVPYPDPLEPRP [DGI-2-20F-PP-A22]
[1]
  ETAG (OD): 44.1 OD
[2]
  DGI-2 (OD): 3.3 OD
  DGI-2/LDH: 3.1 ratio
[3]
  LDH (OD): 1 OD

## VRAVYSRDAYNEVGRWMRVGIAAAGAPVPYPDPLEPRP [DGI-2-20F-PP-D9]
[1]
  ETAG (OD): 9 OD
[2]
  DGI-2 (OD): 2.9 OD
  DGI-2/LDH: 2.9 ratio
[3]
  LDH (OD): 1 OD

## SSVWATWGSDLRTFGSVGFLAAAGAPVPYPDPLEPRP [DGI-2-20F-PP-C7]
[1]
  ETAG (OD): 11 OD
[2]
  DGI-2 (OD): 3 OD
  DGI-2/LDH: 2.6 ratio
[3]
  LDH (OD): 1.1 OD

## EGNWFCAVFRGFCVGDRGPE (not fully specified (bridges); cysteine pairing not given here, on M13 phage, pIII fusion with E-tag) [DGI-2-20R-3-A1]
[4]
  binding result: binds

## SLFERSARSRYHGSPDCNGSAAAGAPVPYPDPLEPRP [DGI-2-20F-PP-A3]
[1]
  ETAG (OD): 12.9 OD
[2]
  DGI-2 (OD): 2.8 OD
  DGI-2/LDH: 2.4 ratio
[3]
  LDH (OD): 1.2 OD

## RSIRLQLIDEACQFFDGLCT (not fully specified; cysteine pairing not given here, on M13 phage, pIII fusion with E-tag) [DGI-2-20R-3-A8]
[4]
  binding result: binds

## GLYQRGLAPRCRGERFGVRNAAAGAPVPYPDPLEPRP [DGI-2-20F-PP-C2]
[1]
  ETAG (OD): 6 OD
[2]
  DGI-2 (OD): 2.7 OD
  DGI-2/LDH: 2.5 ratio
[3]
  LDH (OD): 1.1 OD

## DQRVVGSGWFERLRNWYDRA (on M13 phage, pIII fusion with E-tag) [DGI-2-20R-4-G99]
[4]
  binding result: binds
